According to paper PMC6031460 (Structure (London, England : 1993), 2018):
Each block holds one molecule with its values, some of them ahead of it.

What was measured:
[1] = biological target: Mis16-Eic1 heterodimer (S. pombe) (UniProt O94244); experiment: AUC
[2] = biological target: Mis18 C-terminal helical domain (Mis18C) (S. pombe) (UniProt Q9P802); experiment: AUC
[3] = biological target: S. pombe Mis16 (S. pombe) (UniProt O94244); experiment: ITC
S. pombe Mis16 = biological target: T1, S. pombe Mis16 (S. pombe, UniProt O94244 1-430); experiment: AUC
T1 sequence (looked up): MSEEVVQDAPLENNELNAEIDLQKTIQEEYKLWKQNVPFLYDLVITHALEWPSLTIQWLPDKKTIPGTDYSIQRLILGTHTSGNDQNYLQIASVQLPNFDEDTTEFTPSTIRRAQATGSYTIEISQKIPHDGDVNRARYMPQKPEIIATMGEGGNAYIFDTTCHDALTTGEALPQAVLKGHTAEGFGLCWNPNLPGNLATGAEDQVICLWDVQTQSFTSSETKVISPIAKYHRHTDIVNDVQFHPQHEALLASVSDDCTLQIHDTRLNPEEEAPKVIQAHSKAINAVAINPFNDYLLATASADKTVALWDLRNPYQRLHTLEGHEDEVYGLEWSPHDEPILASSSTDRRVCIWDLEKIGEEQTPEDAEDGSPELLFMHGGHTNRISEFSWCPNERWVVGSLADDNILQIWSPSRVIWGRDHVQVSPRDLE

[4] = biological target: Mis16-Eic1 heterodimer (S. pombe) (UniProt O94244); experiment: AUC; remark: listed apart in the source
AUC = biological target: the molecule itself; experiment: AUC

stoichiometry N (Mis18C per Mis16-Eic1 heterodimer) [1]: 2 | stoichiometry N [2]: 2
Molecule: Mis18 C-terminal helical domain (Mis18C) (from UniProt Q9P802 1-194) (domain or fragment)

stoichiometry N (MBP-Mis18C per Mis16-Eic1 heterodimer) [1]: 2
Molecule: Mis18C fused to maltose binding protein (MBP-Mis18C) (domain or fragment)

Kd [3]: 20.8 nM
Molecule: Trx-Eic1-CT (wild-type) (from UniProt O42995 91-112) (domain or fragment)

stoichiometry N (S. pombe Mis16): 1 Eic1 per Mis16
B1: S. pombe Eic1 (natural protein, UniProt O42995 1-112, looked up)
chain: MDLMPLEKARAIEIAFDNVFHNTKIPDNLQQFDAILKRLERRRFIPTENQKPRVYETELLVLRFREFGVKDNHNHPINLHSLRSKSLIRAQGKKLDLHNRVFLRRNVRAVKM

stoichiometry N (Mis18 per Mis16-Eic1 heterodimer) [4]: 2
B2: S. pombe Mis18 (natural protein, UniProt Q9P802 1-194, looked up)
chain: MSQTETSHSGYIDFKKESQPSVFQCKKCFQIVGDSNAWVISHREYLSFTLSDAVENSVRVEDTFKRSDDGLCVYSELSCTRCNEVIGKVYNSTPIYLDDIRDMYTFSMDKLQAYQLGNKTVNPEGLTRYQVDLEMREDIIKLKSFCLSLYEKFELHDETLRSVKETISSLKKPKIEGKEGKKEKARTYSKRTRK
stoichiometry N (AUC): 4
